B1: GpH7-A5/GpH7-B3 variant E333_13S/GpL16-k0 (antibody, human IgG1, kappa)
heavy 1: not shown
heavy 2: not shown
light: DIVMTQSPLSLPVTPGEPASISCQASESLVHSNRNTYLHWYLQKPGQSPQLLIYKVSNRFSGVPDRFSGSGSGTDFTLKISRVEAEDVGVYYCSQNTHVPPTFGQGTKVEIERTVAAPSVFIFPPSDEQLKSGTASVVCLLNNFYPREAKVQWKVDNALQSGNSQESVTEQDSKDSTYSLSSTLTLSKADYEKHKVYACEVTHQGLSSPVTKSFNRGEC
notes: copies: 1 + 1 + 2
B2: GpH7-A5/GpH7-B3 variant H268_02A/GpL16-k0 (antibody, human IgG1, kappa)
heavy 1: not shown
heavy 2: not shown
light: B1 light
notes: copies: 1 + 1 + 2
B3: GpH7-A5/GpH7-B3 variant H268_14T/GpL16-k0 (antibody, human IgG1, kappa)
heavy 1: not shown
heavy 2: not shown
light: B1 light
notes: copies: 1 + 1 + 2
B4: GpH7-A5/GpH7-B3 variant G236_20W/GpL16-k0 (antibody, human IgG1, kappa)
heavy 1: not shown
heavy 2: not shown
light: B1 light
notes: copies: 1 + 1 + 2
B5: GpH7-A5/GpH7-B3 variant H268_03V/GpL16-k0 (antibody, human IgG1, kappa)
heavy 1: not shown
heavy 2: not shown
light: B1 light
notes: copies: 1 + 1 + 2
B6: GpH7-A5/GpH7-B3 variant I336_03V/GpL16-k0 (antibody, human IgG1, kappa)
heavy 1: not shown
heavy 2: not shown
light: B1 light
notes: copies: 1 + 1 + 2
B7: GpH7-A5/GpH7-B3 variant E333_16H/GpL16-k0 (antibody, human IgG1, kappa)
heavy 1: not shown
heavy 2: not shown
light: B1 light
notes: copies: 1 + 1 + 2
B8: GpH7-A5/GpH7-B3 variant I332_19Q/GpL16-k0 (antibody, human IgG1, kappa)
heavy 1: not shown
heavy 2: not shown
light: B1 light
notes: copies: 1 + 1 + 2
B9: GpH7-A5/GpH7-B3 variant E333_19Q/GpL16-k0 (antibody, human IgG1, kappa)
heavy 1: not shown
heavy 2: not shown
light: B1 light
notes: copies: 1 + 1 + 2
B10: GpH7-A5/GpH7-B3 variant G236_10E/GpL16-k0 (antibody, human IgG1, kappa)
heavy 1: not shown
heavy 2: not shown
light: B1 light
notes: copies: 1 + 1 + 2
B11: GpH7-A5/GpH7-B3 variant E333_18N/GpL16-k0 (antibody, human IgG1, kappa)
heavy 1: not shown
heavy 2: not shown
light: B1 light
notes: copies: 1 + 1 + 2
B12: GpH7-A5/GpH7-B3 variant G236_09D/GpL16-k0 (antibody, human IgG1, kappa)
heavy 1: not shown
heavy 2: not shown
light: B1 light
notes: copies: 1 + 1 + 2
B13: GpH7-A5/GpH7-B3 variant I336_02A/GpL16-k0 (antibody, human IgG1, kappa)
heavy 1: not shown
heavy 2: not shown
light: B1 light
notes: copies: 1 + 1 + 2
B14: GpH7-A5/GpH7-B3 variant H268_19Q/GpL16-k0 (antibody, human IgG1, kappa)
heavy 1: not shown
heavy 2: not shown
light: B1 light
notes: copies: 1 + 1 + 2
B15: GpH7-A5/GpH7-B3 variant I336_04F/GpL16-k0 (antibody, human IgG1, kappa)
heavy 1: not shown
heavy 2: not shown
light: B1 light
notes: copies: 1 + 1 + 2
B16: GpH7-A5/GpH7-B3 variant I332_16H/GpL16-k0 (antibody, human IgG1, kappa)
heavy 1: not shown
heavy 2: not shown
light: B1 light
notes: copies: 1 + 1 + 2
B17: GpH7-A5/GpH7-B3 variant I332_05P/GpL16-k0 (antibody, human IgG1, kappa)
heavy 1: not shown
heavy 2: not shown
light: B1 light
notes: copies: 1 + 1 + 2
B18: GpH7-A5/GpH7-B3 variant H268_11K/GpL16-k0 (antibody, human IgG1, kappa)
heavy 1: not shown
heavy 2: not shown
light: B1 light
notes: copies: 1 + 1 + 2
B19: GpH7-A5/GpH7-B3 variant G237_03V/GpL16-k0 (antibody, human IgG1, kappa)
heavy 1: not shown
heavy 2: not shown
light: B1 light
notes: copies: 1 + 1 + 2
B20: GpH7-A5/GpH7-B3 variant I332_08L/GpL16-k0 (antibody, human IgG1, kappa)
heavy 1: not shown
heavy 2: not shown
light: B1 light
notes: copies: 1 + 1 + 2
B21: GpH7-A5/GpH7-B3 variant I332_03V/GpL16-k0 (antibody, human IgG1, kappa)
heavy 1: not shown
heavy 2: not shown
light: B1 light
notes: copies: 1 + 1 + 2
B22: GpH7-A5/GpH7-B3 variant I332_04F/GpL16-k0 (antibody, human IgG1, kappa)
heavy 1: not shown
heavy 2: not shown
light: B1 light
notes: copies: 1 + 1 + 2
B23: GpH7-A5/GpH7-B3 variant I332_18N/GpL16-k0 (antibody, human IgG1, kappa)
heavy 1: not shown
heavy 2: not shown
light: B1 light
notes: copies: 1 + 1 + 2
B24: GpH7-A5/GpH7-B3 variant G236_02A/GpL16-k0 (antibody, human IgG1, kappa)
heavy 1: not shown
heavy 2: not shown
light: B1 light
notes: copies: 1 + 1 + 2
B25: GpH7-A5/GpH7-B3 variant H268_05P/GpL16-k0 (antibody, human IgG1, kappa)
heavy 1: not shown
heavy 2: not shown
light: B1 light
notes: copies: 1 + 1 + 2
B26: GpH7-A5/GpH7-B3 variant I332_01G/GpL16-k0 (antibody, human IgG1, kappa)
heavy 1: not shown
heavy 2: not shown
light: B1 light
notes: copies: 1 + 1 + 2
B27: GpH7-A5/GpH7-B3 variant I332_15Y/GpL16-k0 (antibody, human IgG1, kappa)
heavy 1: not shown
heavy 2: not shown
light: B1 light
notes: copies: 1 + 1 + 2
B28: GpH7-A5/GpH7-B3 variant H268_06M/GpL16-k0 (antibody, human IgG1, kappa)
heavy 1: not shown
heavy 2: not shown
light: B1 light
notes: copies: 1 + 1 + 2
B29: GpH7-A5/GpH7-B3 variant I332_12R/GpL16-k0 (antibody, human IgG1, kappa)
heavy 1: not shown
heavy 2: not shown
light: B1 light
notes: copies: 1 + 1 + 2
B30: GpH7-A5/GpH7-B3 variant E333_15Y/GpL16-k0 (antibody, human IgG1, kappa)
heavy 1: not shown
heavy 2: not shown
light: B1 light
notes: copies: 1 + 1 + 2

target: T1, FcγRIIIa (human, UniProt P08637 17-208); assay: SPR (Biacore);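 also: antibody variants captured on an SPR sensor chip, with FcγRIIIa passed over as analyte in HBS-EP+ buffer at 25 °C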
T1 construct: extracellular domain; also called 3a; FcγRIIIa extracellular domain
T1 sequence (P08637 other isoform, or with tags, fused parts or gaps): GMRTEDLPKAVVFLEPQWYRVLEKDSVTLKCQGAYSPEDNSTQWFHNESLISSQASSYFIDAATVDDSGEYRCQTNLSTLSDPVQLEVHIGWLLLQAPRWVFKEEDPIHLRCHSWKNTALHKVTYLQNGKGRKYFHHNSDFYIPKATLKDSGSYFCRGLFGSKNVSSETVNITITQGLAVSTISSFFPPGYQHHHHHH
Method: The antibody of interest was analyzed for its interaction with FcγR using a BiaCore™ T100, BiaCore™ A100, or BiaCore™ 4000 surface plasmon resonance system (GE Healthcare Japan Corp.). The running buffer used was HBS-EP+ (GE Healthcare Japan Corp.). The assay temperature was set to 25° C. The sensor chips used were: a chip prepared by immobilizing antigenic peptides onto Series S Sensor Chip CM5 (GE Healthcare Japan Corp.) by the amine coupling method; a chip prepared by immobilizing antigenic peptides biotinylated in advance onto Series S Sensor Chip SA (certified) (GE Healthcare Japan Corp.) through their interaction; a chip prepared by immobilizing protein L (ACTIGEN, BioVision, Inc.) onto Series S Sensor Chip CM5 (GE Healthcare Japan Corp.); and a chip prepared by immobilizing protein A/G (Thermo Fisher Scientific K.K.) onto Series S Sensor Chip CM5 (GE Healthcare Japan Corp.). The antibody of interest was captured onto any of these chips and allowed to interact with FcγR diluted with a running buffer. The antibody captured on the chip was washed off through the reaction of 10 mM glycine-HCl (pH 1.5) to regenerate the chip, which was repetitively used.

| Binder | He/Con 3a |
| --- | --- |
| B1 | 106 % of GpH7-A5/GpH7-B3/GpL16-k0 |
| B2 | 121 % of GpH7-A5/GpH7-B3/GpL16-k0 |
| B3 | 90.3 % of GpH7-A5/GpH7-B3/GpL16-k0 |
| B4 | 126 % of GpH7-A5/GpH7-B3/GpL16-k0 |
| B5 | 91.4 % of GpH7-A5/GpH7-B3/GpL16-k0 |
| B6 | 107 % of GpH7-A5/GpH7-B3/GpL16-k0 |
| B7 | 106 % of GpH7-A5/GpH7-B3/GpL16-k0 |
| B8 | 101 % of GpH7-A5/GpH7-B3/GpL16-k0 |
| B9 | 101 % of GpH7-A5/GpH7-B3/GpL16-k0 |
| B10 | 65.8 % of GpH7-A5/GpH7-B3/GpL16-k0 |
| B11 | 76.2 % of GpH7-A5/GpH7-B3/GpL16-k0 |
| B12 | 66.2 % of GpH7-A5/GpH7-B3/GpL16-k0 |
| B13 | 106 % of GpH7-A5/GpH7-B3/GpL16-k0 |
| B14 | 113 % of GpH7-A5/GpH7-B3/GpL16-k0 |
| B15 | 93.2 % of GpH7-A5/GpH7-B3/GpL16-k0 |
| B16 | 89 % of GpH7-A5/GpH7-B3/GpL16-k0 |
| B17 | 56.3 % of GpH7-A5/GpH7-B3/GpL16-k0 |
| B18 | 81.6 % of GpH7-A5/GpH7-B3/GpL16-k0 |
| B19 | 51.3 % of GpH7-A5/GpH7-B3/GpL16-k0 |
| B20 | 76 % of GpH7-A5/GpH7-B3/GpL16-k0 |
| B21 | 85.2 % of GpH7-A5/GpH7-B3/GpL16-k0 |
| B22 | 89.3 % of GpH7-A5/GpH7-B3/GpL16-k0 |
| B23 | 84.9 % of GpH7-A5/GpH7-B3/GpL16-k0 |
| B24 | 77 % of GpH7-A5/GpH7-B3/GpL16-k0 |
| B25 | 75.6 % of GpH7-A5/GpH7-B3/GpL16-k0 |
| B26 | 101 % of GpH7-A5/GpH7-B3/GpL16-k0 |
| B27 | 92.4 % of GpH7-A5/GpH7-B3/GpL16-k0 |
| B28 | 79.5 % of GpH7-A5/GpH7-B3/GpL16-k0 |
| B29 | 78.1 % of GpH7-A5/GpH7-B3/GpL16-k0 |
| B30 | 101 % of GpH7-A5/GpH7-B3/GpL16-k0 |

From patent US20260167699A1 (Chugai, published 2026)
